Results on 1 substance are retold here after patent US8729030B2 (Affymax, Inc., priority 2003, dated 2014).

In this assay the target is T1, human EPO-R (Homo sapiens, UniProt P19235).
T1 construct: expressed in transfected cells; host or cells: murine pre-B-cell line Baf3 (BaF3/Gal4/Elk/EPOR)
T1 sequence (P19235 25-508): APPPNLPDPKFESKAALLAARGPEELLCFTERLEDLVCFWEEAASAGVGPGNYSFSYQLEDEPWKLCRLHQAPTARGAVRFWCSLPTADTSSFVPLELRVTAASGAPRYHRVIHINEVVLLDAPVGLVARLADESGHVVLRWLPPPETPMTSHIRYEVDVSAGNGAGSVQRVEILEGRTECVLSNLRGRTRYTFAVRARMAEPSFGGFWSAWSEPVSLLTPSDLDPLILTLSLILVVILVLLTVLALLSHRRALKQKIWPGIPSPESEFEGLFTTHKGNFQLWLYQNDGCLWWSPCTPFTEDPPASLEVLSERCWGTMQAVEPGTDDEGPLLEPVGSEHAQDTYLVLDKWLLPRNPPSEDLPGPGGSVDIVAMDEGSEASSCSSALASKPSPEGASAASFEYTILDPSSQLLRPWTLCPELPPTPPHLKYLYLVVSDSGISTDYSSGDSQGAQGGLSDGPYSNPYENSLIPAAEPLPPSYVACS
The experiment in a line: Proliferation assay (BaF3/Gal4/Elk/EPOR cells, MTT). Format: cell-based. The settings on record: Table 6, 48 h. As for the experimental part: This assay is based upon a murine pre-B-cell line, Baf3, transfected to express human EPO-R. Proliferation of the resulting cell line, BaF3/Gal4/Elk/EPOR, is dependent on EPO-R activation. The degree of cell proliferation is quantitated using MTT, where the signal in the MTT assay is proportional to the number of viable cells.
The BaF3/Gal4/Elk/EPOR cells are cultured in spinner flasks in DMEM/F12 medium (Gibco) supplemented with 10% FBS (Hyclone) and 2% WEHI-3 supernatant (ATCC #TIB-68). Cultured cells are starved overnight, in a spinner flask at a cell density of 1×10^6 cells/ml, in DMEM/F12 medium supplemented with 10% FBS and 0.1% WEHI-3 supernatant. […] Absorbance of each well at a wavelength of 595 nm is then measured by spectrophotometry. Plots of the absorbance readings versus test peptide concentration are constructed and the EC50 calculated using Graph Pad software. The concentration of test peptide that results in a half-maximal absorbance is recorded as the EC50[See Table 2: Proliferation EC50].
The BaF3/Gal4/Elk/EPOR cells are cultured in spinner flasks in DMEM/F12 medium (Gibco) supplemented with 10% FBS (Hyclone) and 2% WEHI-3 supernatant (ATCC #TIB-68). […] Absorbance of each well at a wavelength of 595 nm is then measured by spectrophotometry. Plots of the absorbance readings versus test peptide concentration are constructed and the EC50 calculated using Graph Pad software. […]

Bridges are numbered along the chain shown (N, C = ends). Where no end group is shown, it is not given here. [ ]: non-standard residue; d: D form. 1Nal = N[C@@H](Cc1cccc2ccccc12)C(=O)O; Sar = CNCC(=O)O

Substance “peptide dimer of monomers (AcG)GLYACHMGPIT(1-nal)VCQPLR(MeG)K (SEQ ID NO: 2) (Ac-GGLYACHMGPIT[1Nal]VCQPLR[Sar]K; disulfide 6-15 (inferred); not fully specified (residue 1); printed as (AcG)GLYACHMGPIT(1-nal)VCQPLR(MeG)K; also: homodimer, dimer linkage not given here) [Peptide I]” had an EC50 of 0.165 nM.

In general, EC50 refers to the midpoint of the concentration-response curve.
